The series concerns the molecule itself. The series is described as follows: thioflavin T fluorescence + pelleting assay + negative stain TEM; de novo self-assembly into amyloid fibrils; 100 μM monomer in 20 mM sodium phosphate pH 7.4 with 0 mM NaCl, 37 °C, shaking with a Teflon polyball.

B1: α-synuclein splice variant lacking the residues encoded by exons 3 and 5 (αSynΔ3Δ5) (natural protein)
chain: not shown
notes: made from the αSynΔ3 construct with the exon 5 deletion primers; natural splice isoform; No tag is named; Used as soluble monomer and as sonicated fibril seeds; source: E. coli BL21 DE3, purified (boiling, ammonium sulfate precipitation, anion exchange, SEC)
For the protein B1, the binding result is on record as “binds”.

The values above are taken from PMC12593362, “Mapping the Role of Monomer Conformation in the Amyloid Formation of α‑Synuclein Splice Variants” (Journal of the American Chemical Society, 2025).
